Results taken from patent US20220002403A1.

Target: human ILT4 haplotype 5 expressed on mouse 3A9 T cells (human) (UniProt Q8N423)
Assay: cell-based or functional assay

human ILT4 haplotype 5 expressed on mouse 3A9 T cells (human), sequence (Q8N423 other isoform, or with tags, fused parts or gaps): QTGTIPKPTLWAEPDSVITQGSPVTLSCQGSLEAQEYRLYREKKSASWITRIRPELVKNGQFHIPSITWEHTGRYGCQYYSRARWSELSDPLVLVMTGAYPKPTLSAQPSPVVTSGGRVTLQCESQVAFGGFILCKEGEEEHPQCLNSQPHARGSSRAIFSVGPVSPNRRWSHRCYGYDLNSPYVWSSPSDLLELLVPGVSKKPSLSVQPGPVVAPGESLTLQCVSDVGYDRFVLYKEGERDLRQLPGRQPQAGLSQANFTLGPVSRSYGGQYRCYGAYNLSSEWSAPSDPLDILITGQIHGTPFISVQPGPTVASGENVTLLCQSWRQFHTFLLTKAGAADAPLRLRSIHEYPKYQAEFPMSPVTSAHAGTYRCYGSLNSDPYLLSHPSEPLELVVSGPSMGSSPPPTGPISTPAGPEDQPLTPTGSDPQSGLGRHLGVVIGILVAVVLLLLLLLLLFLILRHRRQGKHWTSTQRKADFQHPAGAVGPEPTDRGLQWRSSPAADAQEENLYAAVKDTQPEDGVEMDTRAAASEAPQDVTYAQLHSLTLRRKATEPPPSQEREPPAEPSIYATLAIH

B1: 1E1(G4) (antibody, human IgG4 S228P, lambda, V domains shown)
VH: EVQLQQWGAGLLKPSETLSLTCAVYGGSFSGYYWSWIRQPPGKGLEWIGEINHAGSTNYNPSLKSRVTISVDTSKNQFSLKLSSVTAADTAVYYCARLPTRWVTTRYFDLWGRGTLVTVSS
VL: ESVLTQPPSVSGAPGQRVTISCTGSSSNIGAGYDVHWYQQLPGTAPKLLIYGDSNRPSGVPDRFSVSKSGASASLAITGLQAEDEADYYCQSFDNSLSAYVFGGGTQLTVLG
Work on B1 yielded an EC50 (IL-2 Repression Assay: rescue of IL-2 release from anti-CD3 stimulated ILT4 3A9 T cell transfectants, ELISA) of 0.43 µg/mL.
